Measurements: PMC8780509

Biological target: Recombinant human GCK (residues 16-465) fused to a N-terminal hexahistidine tag (human) (UniProt P35557)
Chain of UniProt P35557 (P35557 16-465): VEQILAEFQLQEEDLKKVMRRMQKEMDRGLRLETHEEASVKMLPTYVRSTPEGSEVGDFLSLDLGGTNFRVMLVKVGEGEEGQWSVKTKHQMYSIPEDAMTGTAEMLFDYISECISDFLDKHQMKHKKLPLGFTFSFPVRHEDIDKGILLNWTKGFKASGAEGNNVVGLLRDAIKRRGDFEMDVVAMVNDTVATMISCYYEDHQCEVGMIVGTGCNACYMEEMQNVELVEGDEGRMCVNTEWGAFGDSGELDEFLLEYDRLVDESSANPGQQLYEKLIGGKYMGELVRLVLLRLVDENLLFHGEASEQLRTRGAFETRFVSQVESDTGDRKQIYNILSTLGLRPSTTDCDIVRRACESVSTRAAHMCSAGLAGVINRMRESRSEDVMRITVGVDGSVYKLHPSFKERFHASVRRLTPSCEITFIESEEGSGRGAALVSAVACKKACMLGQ

Purified NS5A-D2 protein (amino acids 250 to 342) (domain or fragment)
maximum velocity (Vmax) of purified GCK, increase in the presence of NS5A-D2: 31%
